PMC2699158

Target: taxol-stabilized microtubules
Experiment: co-sedimentation

Kd: < 300 nM
Substance: 6×His-CLASP2(340–650), wild type (from UniProt O75122-3 340-650) (domain or fragment)
